Experimental data as given in US20120208765.

Columns and labels:
human agrinC44 y4z8 = target: T1, human agrinC44 y4z8
T1 chain: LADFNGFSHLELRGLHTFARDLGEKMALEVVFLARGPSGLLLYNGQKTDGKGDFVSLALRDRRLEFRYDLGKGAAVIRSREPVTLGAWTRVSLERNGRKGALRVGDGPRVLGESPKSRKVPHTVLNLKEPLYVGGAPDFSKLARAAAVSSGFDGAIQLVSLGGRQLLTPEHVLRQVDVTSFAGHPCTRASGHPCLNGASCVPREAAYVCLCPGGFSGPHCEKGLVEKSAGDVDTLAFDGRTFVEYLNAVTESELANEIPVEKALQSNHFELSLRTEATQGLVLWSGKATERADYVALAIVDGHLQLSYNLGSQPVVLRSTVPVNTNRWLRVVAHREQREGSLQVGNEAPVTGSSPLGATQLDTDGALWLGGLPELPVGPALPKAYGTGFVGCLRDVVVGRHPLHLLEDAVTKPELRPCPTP

[1] = target: T2, neurotrypsin-resistant human agrin C44 y0z8K/A (h)
T2 chain: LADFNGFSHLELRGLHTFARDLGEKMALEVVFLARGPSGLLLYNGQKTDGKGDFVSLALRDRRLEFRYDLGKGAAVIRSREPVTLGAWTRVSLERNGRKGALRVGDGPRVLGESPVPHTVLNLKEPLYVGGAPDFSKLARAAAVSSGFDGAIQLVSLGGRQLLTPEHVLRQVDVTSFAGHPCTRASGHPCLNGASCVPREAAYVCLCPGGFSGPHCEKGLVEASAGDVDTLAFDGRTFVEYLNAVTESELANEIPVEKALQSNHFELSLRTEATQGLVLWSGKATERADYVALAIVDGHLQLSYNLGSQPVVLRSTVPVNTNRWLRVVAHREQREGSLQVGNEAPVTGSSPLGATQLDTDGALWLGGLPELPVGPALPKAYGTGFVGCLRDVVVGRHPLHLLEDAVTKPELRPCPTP

[2] = target: T3, neurotrypsin-resistant human agrin C44 y4z0K/A
T3 chain: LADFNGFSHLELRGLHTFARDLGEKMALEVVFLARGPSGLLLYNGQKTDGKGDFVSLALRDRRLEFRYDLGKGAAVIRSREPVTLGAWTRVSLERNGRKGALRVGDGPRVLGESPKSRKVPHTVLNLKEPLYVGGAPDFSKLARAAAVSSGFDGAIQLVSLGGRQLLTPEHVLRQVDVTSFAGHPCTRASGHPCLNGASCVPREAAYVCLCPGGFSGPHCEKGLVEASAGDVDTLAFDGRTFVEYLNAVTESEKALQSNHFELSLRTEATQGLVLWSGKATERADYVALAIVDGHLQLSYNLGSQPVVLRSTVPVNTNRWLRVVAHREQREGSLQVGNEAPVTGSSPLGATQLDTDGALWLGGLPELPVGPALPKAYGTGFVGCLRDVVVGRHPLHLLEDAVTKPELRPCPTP

[3] = target: T4, neurotrypsin-resistant human agrin C44 y4z8K/A with N-terminal His8 tag (C44K/A)
T4 chain: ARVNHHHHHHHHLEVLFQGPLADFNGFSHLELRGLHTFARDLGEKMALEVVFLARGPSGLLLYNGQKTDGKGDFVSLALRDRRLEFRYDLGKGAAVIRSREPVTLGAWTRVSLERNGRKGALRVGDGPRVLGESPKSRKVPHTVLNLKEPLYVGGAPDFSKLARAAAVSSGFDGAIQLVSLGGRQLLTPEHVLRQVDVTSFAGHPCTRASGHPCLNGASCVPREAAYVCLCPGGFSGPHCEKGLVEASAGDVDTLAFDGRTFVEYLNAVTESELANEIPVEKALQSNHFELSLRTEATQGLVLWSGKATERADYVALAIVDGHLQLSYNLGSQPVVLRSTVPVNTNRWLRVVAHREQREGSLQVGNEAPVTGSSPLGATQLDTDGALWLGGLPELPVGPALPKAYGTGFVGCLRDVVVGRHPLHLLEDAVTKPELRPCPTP

[4] = target: T5, neurotrypsin-resistant mouse agrin C44 y0z8K/A (m)
T5 chain: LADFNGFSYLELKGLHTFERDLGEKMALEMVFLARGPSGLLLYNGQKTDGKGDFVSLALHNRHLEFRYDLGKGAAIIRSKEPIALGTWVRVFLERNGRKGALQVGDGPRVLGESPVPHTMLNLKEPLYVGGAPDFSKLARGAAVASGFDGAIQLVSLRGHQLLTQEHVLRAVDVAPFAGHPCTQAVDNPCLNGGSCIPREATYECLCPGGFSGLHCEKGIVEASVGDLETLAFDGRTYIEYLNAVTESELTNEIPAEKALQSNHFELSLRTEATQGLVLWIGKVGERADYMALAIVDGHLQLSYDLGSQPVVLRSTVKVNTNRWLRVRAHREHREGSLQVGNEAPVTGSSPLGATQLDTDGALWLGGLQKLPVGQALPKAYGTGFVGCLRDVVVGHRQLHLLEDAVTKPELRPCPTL

[5] = target: T6, neurotrypsin-resistant mouse agrin C44 y4z8K/A (m)
T6 chain: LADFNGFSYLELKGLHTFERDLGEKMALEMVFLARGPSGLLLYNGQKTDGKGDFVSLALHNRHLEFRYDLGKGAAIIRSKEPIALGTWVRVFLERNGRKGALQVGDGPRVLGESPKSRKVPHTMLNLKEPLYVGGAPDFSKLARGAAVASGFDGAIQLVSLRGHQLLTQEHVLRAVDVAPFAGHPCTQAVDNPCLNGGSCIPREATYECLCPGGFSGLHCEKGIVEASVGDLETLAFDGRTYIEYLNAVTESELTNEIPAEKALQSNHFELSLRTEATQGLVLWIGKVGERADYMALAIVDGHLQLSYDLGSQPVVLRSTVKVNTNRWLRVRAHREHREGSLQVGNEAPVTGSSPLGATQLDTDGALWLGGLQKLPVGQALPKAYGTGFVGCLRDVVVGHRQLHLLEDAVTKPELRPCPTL

B1: human neurotrypsin (protein)
chain: FDSVLNDSLHHSHRHSPPAGPHYPYYLPTQQRPPRTRPPPPLPRFPRPPRALPAQRPHALQAGHTPRPHPWGCPAGEPWVSVTDFGAPCLRWAEVPPFLERSPPASWAQLRGQRHNFCRSPDGAGRPWCFYGDARGKVDWGYCDCRHGSVRLRGGKNEFEGTVEVYASGVWGTVCSSHWDDSDASVICHQLQLGGKGIAKQTPFSGLGLIPIYWSNVRCRGDEENILLCEKDIWQGGVCPQKMAAAVTCSFSHGPTFPIIRLAGGSSVHEGRVELYHAGQWGTVCDDQWDDADAEVICRQLGLSGIAKAWHQAYFGEGSGPVMLDEVRCTGNELSIEQCPKSSWGEHNCGHKEDAGVSCTPLTDGVIRLAGGKGSHEGRLEVYYRGQWGTVCDDGWTELNTYVVCRQLGFKYGKQASANHFEESTGPIWLDDVSCSGKETRFLQCSRRQWGRHDCSHREDVSIACYPGGEGHRLSLGFPVRLMDGENKKEGRVEVFINGQWGTICDDGWTDKDAAVICRQLGYKGPARARTMAYFGEGKGPIHVDNVKCTGNERSLADCIKQDIGRHNCRHSEDAGVICDYFGKKASGNSNKESLSSVCGLRLLHRRQKRIIGGKNSLRGGWPWQVSLRLKSSHGDGRLLCGATLLSSCWVLTAAHCFKRYGNSTRSYAVRVGDYHTLVPEEFEEEIGVQQIVIHREYRPDRSDYDIALVRLQGPEEQCARFSSHVLPACLPLWRERPQKTASNCYITGWGDTGRAYSRTLQQAAIPLLPKRFCEERYKGRFTGRMLCAGNLHEHKRVDSCQGDSGGPLMCERPGESWVVYGVTSWGYGCGVKDSPGVYTKVSAFVPWIKSVTKL
- proteolytic digestion of the agrin fragment by human neurotrypsin, SDS-PAGE (Sypro ruby); control substrate with intact β-cleavage site, cleavage implied (human agrinC44 y4z8): The mutation K to A in the β-cleavage site efficiently abolishes a cleavage of the agrin fragment
- proteolytic digestion by human neurotrypsin, SDS-PAGE (FIG. 11) [1]: the C44K/A-fragments as shown in the FIGS. 2b and 7-10 are not digested by neurotrypsin
- proteolytic digestion by human neurotrypsin, SDS-PAGE (FIG. 11) [2]: the C44K/A-fragments as shown in the FIGS. 2b and 7-10 are not digested by neurotrypsin
- proteolytic digestion by human neurotrypsin, SDS-PAGE (FIG. 11) [3]: the C44K/A-fragments as shown in the FIGS. 2b and 7-10 are not digested by neurotrypsin
- proteolytic digestion of the agrin fragment by human neurotrypsin, SDS-PAGE (Sypro ruby) [3]: The mutation K to A in the β-cleavage site efficiently abolishes a cleavage of the agrin fragment
- proteolytic digestion by human neurotrypsin, SDS-PAGE (FIG. 11) [4]: the C44K/A-fragments as shown in the FIGS. 2b and 7-10 are not digested by neurotrypsin
- proteolytic digestion by human neurotrypsin, SDS-PAGE (FIG. 11) [5]: the C44K/A-fragments as shown in the FIGS. 2b and 7-10 are not digested by neurotrypsin
